Source: paper PMC4046772, “Different Dynamical Effects in Mesophilic and Hyperthermophilic Dihydrofolate Reductases” (Journal of the American Chemical Society, 2014)

Tests used:
steady-state kinetics [1] = substrate: Nc1nc2c(c(=O)[nH]1)N=C(CNc1ccc(C(=O)N[C@@H](CCC(=O)O)C(=O)O)cc1)CN2; experiment: steady-state kinetics; type: biochemical, Thermotoga maritima; settings: 45 °C, light enzyme (natural isotope abundance), co-substrate NADPH, steady-state kinetics at pH 7
steady-state kinetics [2] = substrate: NC(=O)C1=CN([C@@H]2O[C@H](COP(=O)(O)OP(=O)(O)OC[C@H]3O[C@@H](n4cnc5c(N)ncnc54)[C@H](OP(=O)(O)O)[C@@H]3O)[C@@H](O)[C@H]2O)C=CC1; experiment: steady-state kinetics; type: biochemical, Thermotoga maritima; settings: 45 °C, light enzyme (natural isotope abundance), co-substrate dihydrofolate, steady-state kinetics at pH 7

B1: TmDHFR (Thermotoga maritima MSB8) (protein)
chain: MAKVIFVLAMDVSGKIASSVESWSSFEDRKNFRKITTEIGNVVMGRITFEEIGRPLPERLNVVLTRRPKTSNNPSLVFFNGSPADVVKFLEGKGYERVAVIGGKTVFTEFLREKLVDELFVTVEPYVFGKGIPFFDEFEGYFPLKLLEMRRLNERGTLFLKYSVEKSHR
notes: purified homodimer, natural isotope abundance (light) enzyme; procedures in supplement
Protein B1 has a Km (steady-state kinetics [1]) of 1 µM and a Km (steady-state kinetics [2]) of 1 µM.
